B1: HDV Ribozyme (parent)
chain: GGCCGGCAUGGUCCCAGCCUCCUCGCUGGCGCCGGCUGGGCAACAUUCCGAGGGGACCGUCCCCUCGGUAAUGGCGAAUGGGACCCA

Variants of: B1
Experiment: self-cleavage, relative activity (ratio to wild type); higher = more cleavage; co-transcriptional

| Variant | self-cleavage |
| --- | --- |
| C49U G73A | 0.716 |
| C49U A87U | 0.939 |
| C49U A87G | 0.959 |
| C48G A71U | 0.554 |
| C48G A71G | 0.962 |
| U47G G74U | 0.434 |
| C49U G54A | 1.02 |
| C49A A56G | 1.11 |
| U47C G52U | 0.698 |
| G50C A71G | 1.01 |
| U47C C57A | 0.875 |
| U47C C57G | 0.677 |
| U47G C64G | 0.485 |
| C48A A83U | 0.465 |
| C49G U72C | 0.332 |
| C48U G53U | 0.923 |
| G50A A56C | 1.25 |
| C48A U69A | 0.814 |
| C48A U69G | 0.997 |
| C48A U69C | 0.892 |
| U47C U69C | 1.08 |
| C49A C61U | 0.789 |
| C49A C61A | 0.759 |
| C49A G80A | 0.479 |

| Variant | self-cleavage |
| --- | --- |
| C49A C57G | 0.898 |
| C49U C64A | 0.739 |
| G50A | 0.98 |
| G50C | 0.963 |
| C48G C86G | 1.11 |
| U47G C58G | 0.831 |
| C48G U69G | 0.712 |
| C48G U69C | 0.987 |
| C48A A78U | 0.242 |
| C48A A78C | 0.169 |
| C48A A78G | 0.776 |
| C49G U60A | 0.923 |
| C49G U60G | 0.762 |
| C49G U60C | 0.831 |
| C49U G55C | 0.906 |
| C48A G76U | 1.03 |
| C49A C66U | 0.979 |
| C49U A78U | 0.437 |
| C48A C86G | 1.04 |
| G50A C85G | 0.878 |
| C49A A51C | 0.297 |
| C49A A51G | 0.748 |
| C49G G76A | 1.1 |
| U47A G54C | 1.01 |

| Variant | self-cleavage |
| --- | --- |
| C49U C63G | 0.396 |
| C49U C63A | 1 |
| C49A G55U | 1.18 |
| C49A G55A | 0.816 |
| C48A G52U | 0.974 |
| G50A C84G | 0.853 |
| G50A C84A | 0.95 |
| C48A C62U | 1.05 |
| G50A A77U | 0.721 |
| C49G C84U | 0.429 |
| G50A U69G | 0.76 |
| C49U G74C | 0.374 |
| C49U G74A | 0.443 |
| C48U G73C | 0.422 |
| G50A A83C | 0.525 |
| C48A U72C | 0.519 |
| G50C G80A | 0.523 |
| U47C C84A | 0.554 |
| U47A U65G | 0.931 |
| U47A U65A | 1.07 |
| C49G C66U | 0.646 |
| C49U G68U | 0.817 |
| U47A G68U | 0.944 |
| U47A G68A | 1.09 |

| Variant | self-cleavage |
| --- | --- |
| U47G U72G | 0.623 |
| C48U G59C | 1.23 |
| C49A A78G | 0.665 |
| U47C G74C | 0.256 |
| U47C G74U | 0.633 |
| C49A G81U | 0.26 |
| C49U U65G | 0.939 |
| C49A C75A | 0.156 |
| C48A A51U | 1.1 |
| C48A C57G | 1.18 |
| C48G A70U | 0.506 |
| C48U C85U | 1.14 |
| U47G C57G | 1.22 |
| U47G C57A | 1.22 |
| G50C G55C | 1.14 |
| C48A G53C | 1.2 |
| C49G C61G | 0.618 |
| C49U C66U | 0.899 |
| C49G G73C | 0.136 |
| C49G G73A | 0.197 |
| U47A G52C | 0.978 |
| U47C C48G | 0.804 |
| G50C C58G | 0.796 |
| G50C C58U | 1.04 |

| Variant | self-cleavage |
| --- | --- |
| C49A C85G | 0.762 |
| C48G A87C | 1.08 |
| C48G A87G | 0.975 |
| U47A G55C | 1.15 |
| U47C U60A | 0.987 |
| C49G G54A | 0.332 |
| C49G G54C | 0.762 |
| C48A G67C | 0.856 |
| G50C U60A | 1.03 |
| G50C U60G | 1.03 |
| G50C C57G | 1.12 |
| G50C C57U | 1.04 |
| U47G C85U | 1.21 |
| G50A C86G | 0.884 |
| C48G U72A | 0.718 |
| U47C A77C | 0.317 |
| C49A A87C | 0.95 |
| C49A A87G | 0.839 |
| G50A U60A | 0.776 |
| C49U U60G | 0.939 |
| C49U U60A | 0.718 |
| C49U U60C | 1.04 |
| C48A C49U | 1.23 |
| C48A C49A | 1.16 |

| Variant | self-cleavage |
| --- | --- |
| G50A C57G | 0.886 |
| U47G C75U | 0.305 |
| U47G C75A | 0.107 |
| U47G C48G | 0.635 |
| C49A | 0.965 |
| C49U | 0.96 |
| C49G | 0.905 |
| U47A G81C | 0.161 |
| U47A G81U | 0.219 |
| U47A C85A | 0.962 |
| G50C U65A | 0.919 |
| C49U G81U | 0.314 |
| G50C C64A | 0.389 |
| G50A G80U | 0.233 |
| G50A G54C | 0.628 |
| C48G C84U | 0.848 |
| G50A G59C | 1.31 |
| U47A C64U | 1.08 |
| U47C G59U | 0.95 |
| U47C G59C | 1.09 |
| C49G C75A | 0.185 |
| U47A C75A | 0.138 |
| U47A C75U | 0.203 |
| C49G C63A | 0.489 |

| Variant | self-cleavage |
| --- | --- |
| C49U G80U | 0.219 |
| C49U G80C | 0.143 |
| U47G C84A | 0.965 |
| U47G C84G | 0.475 |
| U47G C62U | 0.923 |
| U47A G67C | 1.12 |
| G50A C61U | 0.649 |
| C48U U65A | 0.876 |
| C49G G68C | 0.458 |
| C49G G68A | 0.789 |
| U47G U69G | 0.776 |
| C49G G59A | 1.11 |
| C49G A83G | 0.378 |
| G50A G52A | 0.888 |
| C48U A87G | 1.07 |
| C48G A56U | 1.03 |
| C48G A56C | 0.875 |
| C49A G82A | 0.104 |
| C49U G82U | 0.47 |
| C49U G82C | 0.264 |
| G50C C84G | 0.542 |
| C49A U79A | 1.05 |
| C49U G76C | 0.867 |

Source: the RNAGym collection of RNA variant scans (doi:10.7554/elife.80360)
